For orientation: stoichiometry N means the number of molecules, sites or subunits per partner or assembly.

Data set [1] has as its target T1, human Insc of the Insc:LGN:Gαi complex (human, UniProt Q1MX18-2 1-532).
T1 construct: human Inscuteable; Same chain as the Insc chain of m16
T1 sequence (looked up): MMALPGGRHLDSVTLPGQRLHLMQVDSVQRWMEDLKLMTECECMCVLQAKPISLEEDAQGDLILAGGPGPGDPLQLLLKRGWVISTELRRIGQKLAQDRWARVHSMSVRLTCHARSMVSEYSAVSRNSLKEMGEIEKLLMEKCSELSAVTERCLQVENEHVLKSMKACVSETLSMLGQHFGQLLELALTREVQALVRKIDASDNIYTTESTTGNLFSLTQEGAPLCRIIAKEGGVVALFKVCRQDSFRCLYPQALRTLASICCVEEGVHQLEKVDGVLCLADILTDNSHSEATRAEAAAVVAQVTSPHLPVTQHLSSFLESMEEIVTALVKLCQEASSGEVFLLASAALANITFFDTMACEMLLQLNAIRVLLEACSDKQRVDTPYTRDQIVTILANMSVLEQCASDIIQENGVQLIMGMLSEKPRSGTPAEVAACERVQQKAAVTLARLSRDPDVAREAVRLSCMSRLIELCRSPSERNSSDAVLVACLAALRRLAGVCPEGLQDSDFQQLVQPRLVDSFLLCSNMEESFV
The data set can be described thus: SEC; Par3^PDZ123 mixed in molar excess with purified Insc:LGN:Gαi, SDS-PAGE of fractions. To be noted: both partners purified. (In general: In gel filtration, larger molecules generally elute earlier.)

Data set [2] concerns the target T2, Drosophila LGN (Pins) TPR domain, residues 25-406 (Drosophila, UniProt Q9VB22 25-406).
T2 construct: Pins (fly orthologue of LGN), Drosophila, residues 25-406 (TPR domain); Monomeric in isolation; two copies stand in the 2:2 tetramer with Insc^ASYM; also called dLGN^TPR; dLGN^25–406
T2 sequence (looked up): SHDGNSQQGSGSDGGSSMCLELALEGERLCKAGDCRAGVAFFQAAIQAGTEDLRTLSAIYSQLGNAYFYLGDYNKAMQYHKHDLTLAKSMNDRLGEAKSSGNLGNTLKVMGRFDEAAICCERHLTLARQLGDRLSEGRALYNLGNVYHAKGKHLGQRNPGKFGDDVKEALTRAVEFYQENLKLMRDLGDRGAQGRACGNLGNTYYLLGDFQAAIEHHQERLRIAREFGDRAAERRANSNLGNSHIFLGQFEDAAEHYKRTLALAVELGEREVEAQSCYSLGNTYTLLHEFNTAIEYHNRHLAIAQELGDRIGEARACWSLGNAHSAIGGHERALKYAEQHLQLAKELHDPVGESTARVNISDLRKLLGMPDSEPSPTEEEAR
Nature of the data set: SEC-MALS; static light scattering of the dLGN^TPR:Insc^ASYM complex eluting from a size-exclusion column. To be noted: both partners purified.

Data set [3] deals with the molecule itself. Nature of the data set: crystal structure; dLGN 25-406:Insc 283-623 complex, 3.4 Å, space group P212121, four tetramers in the asymmetric unit.

B1: human Par3^PDZ123 (residues 269-685), GST-tag removed (domain or fragment, UniProt Q8TEW0 269-685, looked up)
chain: DDMVKLVEVPNDGGPLGIHVVPFSARGGRTLGLLVKRLEKGGKAEHENLFRENDCIVRINDGDLRNRRFEQAQHMFRQAMRTPIIWFHVVPAANKEQYEQLSQSEKNNYYSSRFSPDSQYIDNRSVNSAGLHTVQRAPRLNHPPEQIDSHSRLPHSAHPSGKPPSAPASAPQNVFSTTVSSGYNTKKIGKRLNIQLKKGTEGLGFSITSRDVTIGGSAPIYVKNILPRGAAIQDGRLKAGDRLIEVNGVDLVGKSQEEVVSLLRSTKMEGTVSLLVFRQEDAFHPRELNAEPSQMQIPKETKAEDEDIVLTPDGTREFLTFEVPLNDSGSAGLGVSVKGNRSKENHADLGIFVKSIINGGAASKDGRLRVNDQLIAVNGESLLGKTNQDAMETLRRSMSTEGNKRGMIQLIVARRIS
notes: human Par3, residues 269-685 (the three PDZ domains), Uniprot Q8TEW0
In the case of B1, in data set [1], the binding result was “binds”.

B2: Drosophila Inscuteable asymmetric domain, residues 283-623 (domain or fragment, UniProt Q24367 283-623, looked up)
chain: SLRFTASTSTPKSGSKIAKRGKKHPEPVASWMSEQRWAGEPEVMCTLQHKSIAQEAYKNYTITTSAVCKLVRQLQQQALSLQVHFERSERVLSGLQASSLPEALAGATQLLSHLDDFTATLERRGVFFNDAKIERRRYEQHLEQIRTVSKDTRYSLERQHYINLESLLDDVQLLKRHTLITLRLIFERLVRVLVISIEQSQCDLLLRANINMVATLMNIDYDGFRSLSDAFVQNEAVRTLLVVVLDHKQSSVRALALRALATLCCAPQAINQLGSCGGIEIVRDILQVESAGERGAIERREAVSLLAQITAAWHGSEHRVPGLRDCAESLVAGLAALLQPE
notes: Inscuteable, Drosophila, residues 283-623 (asymmetric domain: Insc^PEPT stretch, four-helix bundle, three Armadillo repeats); Two copies stand in the 2:2 tetramer with dLGN^TPR; also called Insc^ASYM; Insc-A^ASYM
In the case of B2, the “stoichiometry N” value in data set [2] is 1 Insc per dLGN (2:2). In addition, in data set [3], the binding result is “binds”.

The values are drawn from PMC5844954, “Insc:LGN tetramers promote asymmetric divisions of mammary stem cells” (Nature Communications, 2018).
